Patent US20030186223A1, “Modular recombinatorial display libraries” (Dyax Corp., priority 2002, published 2003)
Positions of bridges follow the written chain, without caps; N, C: chain ends. No end group written: not given here.

Tests used:
KDR-Fc fusion protein = biological target: T1, KDR-Fc fusion protein (Homo sapiens, UniProt P35968); test: BIAcore surface plasmon resonance binding of synthetic polypeptides to immobilized KDR-Fc; settings: BIAcore SPR; KDR-Fc fusion immobilized on chip; synthetic polypeptide with acetyl-Ser-Gly- and -Gly-Ser flanks
T1 construct: purchased R & D Systems (Minneapolis, Minn.) 357-KD-050
Description: Binding affinity of selected peptides from the various rounds of selection was tested using a BIAcore surface plasmon resonance spectrophotometer. Polypeptides selected from Tables 1, 2, and 3 were synthesized by solid phase synthesis using the sequence as shown in the tables above and an N-terminal flanking peptide, acetyl-Ser-Gly-, and a C-terminal flanking peptide, -Gly-Ser. A KDR-Fc fusion protein target was immobilized on a BIAcore chip, and the synthetic polypeptides were flowed over the chip to measure the KD of the polypeptides with respect to the KDR target.

[1] = biological target: T2, KDR-Fc fusion (chimeric fusion of Ig Fc region with human KDR, R & D Systems #357-KD-050) (human, UniProt P35968 20-764); test: secondary library, round 1: phage display selection against KDR-Fc as before
T2 construct: Bought carrier-free from R & D Systems; also called KDR-Fc fusion protein target; KDR target; not shown: Ig Fc region

[2] = biological target: T2, KDR-Fc fusion (chimeric fusion of Ig Fc …); test: BIAcore SPR, KDR-Fc immobilized on chip, synthetic peptide flowed over
[3] = biological target: T2, KDR-Fc fusion (chimeric fusion of Ig Fc …); test: phage display selection on KDR-Fc beads and phage ELISA screen on KDR-Fc
Description: The phage library was incubated with 50 μl of Trail R4 Fc fusion beads on a Labquake shaker for 1 hour at room temperature (RT). After incubation, the phage supernatant was removed and incubated with another 50 μl of Trail R4 beads. This was repeated for a total of 5 rounds of depletion, to remove non-specific Fc fusion and bead binding phage from the library. The depleted library was added to 100 μl of KDR-Fc beads and allowed to incubate on a LabQuake shaker for 1 hour at RT. Beads were then washed as rapidly as possible with 5×1 ml PBSTH using a magnetic stand (Promega) to separate the beads from the wash buffer. Phage still bound to beads after the washing were competition-eluted using soluble VEGF₁₆₅ (#100-20) purchased in carrier-free form from Peprotech (Rocky Hill, N.J.) as follows: The beads were incubated with 250 μl of VEGF (50 μg/ml,˜1 μM) overnight at room temperature (RT) on a LabQuake shaker. […]
Once the plates were prepared, each overnight phage culture was diluted 1:1 (or to 10¹⁰ pfu if using purified phage stock) with PBS, 0.05% Tween-20, 1% BSA. […] Each plate was washed 7 times with PBST (PBS, 0.05% Tween-20), then the plates were developed with HRP substrate (˜10 minutes) and the absorbance signal (630 nm) detected with a plate reader.

T1 sequence (P35968 with tags, fused parts or gaps limits assumed): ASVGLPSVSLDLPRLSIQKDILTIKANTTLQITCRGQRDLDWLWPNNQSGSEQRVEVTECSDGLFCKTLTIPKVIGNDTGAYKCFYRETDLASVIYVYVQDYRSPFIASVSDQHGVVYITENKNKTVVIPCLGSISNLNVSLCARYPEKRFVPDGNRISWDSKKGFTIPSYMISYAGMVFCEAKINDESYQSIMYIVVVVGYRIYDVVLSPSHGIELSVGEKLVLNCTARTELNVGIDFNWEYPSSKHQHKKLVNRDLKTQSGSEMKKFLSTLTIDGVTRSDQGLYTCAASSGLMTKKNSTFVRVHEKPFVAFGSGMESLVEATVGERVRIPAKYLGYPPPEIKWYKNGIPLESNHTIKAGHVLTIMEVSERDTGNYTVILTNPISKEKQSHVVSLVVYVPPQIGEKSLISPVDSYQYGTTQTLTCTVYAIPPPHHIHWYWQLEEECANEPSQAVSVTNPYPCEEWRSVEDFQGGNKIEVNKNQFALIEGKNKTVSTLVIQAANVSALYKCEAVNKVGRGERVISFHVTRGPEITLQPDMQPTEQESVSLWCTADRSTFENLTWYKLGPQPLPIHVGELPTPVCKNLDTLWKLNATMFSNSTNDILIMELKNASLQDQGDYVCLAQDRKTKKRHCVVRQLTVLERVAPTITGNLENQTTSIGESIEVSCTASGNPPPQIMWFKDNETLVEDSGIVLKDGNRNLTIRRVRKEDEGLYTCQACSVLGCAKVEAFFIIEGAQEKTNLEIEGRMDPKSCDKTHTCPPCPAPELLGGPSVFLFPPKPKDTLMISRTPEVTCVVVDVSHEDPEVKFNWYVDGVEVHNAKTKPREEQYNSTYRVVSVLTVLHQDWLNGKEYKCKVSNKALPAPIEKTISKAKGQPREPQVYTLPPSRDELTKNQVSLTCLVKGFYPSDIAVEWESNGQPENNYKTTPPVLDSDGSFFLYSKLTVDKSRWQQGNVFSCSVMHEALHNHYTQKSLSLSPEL
T2 sequence (P35968 20-764, stated change not applied): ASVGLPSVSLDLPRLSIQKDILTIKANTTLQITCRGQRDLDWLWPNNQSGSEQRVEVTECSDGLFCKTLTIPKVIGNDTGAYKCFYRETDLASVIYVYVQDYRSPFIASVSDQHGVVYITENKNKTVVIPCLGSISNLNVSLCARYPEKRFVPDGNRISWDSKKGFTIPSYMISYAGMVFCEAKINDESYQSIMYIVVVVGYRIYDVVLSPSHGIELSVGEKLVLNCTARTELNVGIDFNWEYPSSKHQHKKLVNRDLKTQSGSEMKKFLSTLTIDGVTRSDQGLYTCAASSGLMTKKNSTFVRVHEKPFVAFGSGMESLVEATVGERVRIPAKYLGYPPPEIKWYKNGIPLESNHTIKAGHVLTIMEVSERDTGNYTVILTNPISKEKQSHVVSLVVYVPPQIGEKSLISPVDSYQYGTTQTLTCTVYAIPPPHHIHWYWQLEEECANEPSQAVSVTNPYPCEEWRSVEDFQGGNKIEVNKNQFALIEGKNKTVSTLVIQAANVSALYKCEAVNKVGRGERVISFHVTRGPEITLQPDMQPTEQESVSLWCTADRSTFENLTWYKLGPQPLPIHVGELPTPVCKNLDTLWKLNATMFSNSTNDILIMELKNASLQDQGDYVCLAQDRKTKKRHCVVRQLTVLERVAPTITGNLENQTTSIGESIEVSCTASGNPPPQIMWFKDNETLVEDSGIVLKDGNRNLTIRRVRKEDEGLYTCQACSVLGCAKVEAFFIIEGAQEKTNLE

## WQECTKVLSGPGQFLCSYG (Selected library sequence) [SEQ ID NO: 6]
KDR-Fc fusion protein
  binding to KDR target (qualitative): no binding

## SNKCDHYQSGPYGAVCLHY (Selected library sequence) [SEQ ID NO: 7]
KDR-Fc fusion protein
  binding to KDR target (qualitative): no binding

## WQECTKVLSGPGQFECEYM (Selected library sequence) [SEQ ID NO: 24]
KDR-Fc fusion protein
  binding to KDR target (qualitative): no binding

## SNKCDHYQSGPHGKICVNY (Selected library sequence) [SEQ ID NO: 23]
KDR-Fc fusion protein
  binding to KDR target (qualitative): no binding

B1: SEQ ID NO 45 phage isolate (peptide, not shown: large carriers; small tags and cut ends)
peptide: RTTCHHQISGPYGDICVKY
modifications: disulfide 4-16 (inferred); also: displayed on M13 phage fused to protein III via linkers
[1]
  binding result: binds

B2: SEQ ID NO 44 phage isolate (peptide, not shown: large carriers; small tags and cut ends)
peptide: RTTCHHQISGPFGPVCVNY
modifications: disulfide 4-16 (inferred); also: displayed on M13 phage fused to protein III via linkers
[1]
  binding result: binds

B3: SEQ ID NO 43 phage isolate (peptide, not shown: large carriers; small tags and cut ends)
peptide: SNKCDHYQSGPFGDICVSY
modifications: disulfide 4-16 (inferred); also: displayed on M13 phage fused to protein III via linkers
[1]
  binding result: binds

B4: SEQ ID NO 42 phage isolate (peptide, not shown: large carriers; small tags and cut ends)
peptide: SNKCDHYQSGPFGDVCVSY
modifications: disulfide 4-16 (inferred); also: displayed on M13 phage fused to protein III via linkers
[1]
  binding result: binds

B5: SEQ ID NO 49 synthetic polypeptide (peptide)
chain: Ac-SGRLDCDKVFSGPYGKVCVSYGS
modifications: cysteine pairing not given here
[2]
  Kd: 1000 nM

B6: SEQ ID NO 22 synthetic polypeptide (peptide)
chain: Ac-SGRTTCHHQISGPHGKICVNYGS
modifications: cysteine pairing not given here
[2]
  Kd: 650 nM

B7: SEQ ID NO 12 phage isolate (peptide, not shown: large carriers; small tags and cut ends)
peptide: AHQCHHWTSGPYGEVCFNY
modifications: disulfide 4-16 (inferred); also: displayed on M13 phage fused to protein III via linkers
[3]
  binding result: binds

B8: SEQ ID NO 10 phage isolate (peptide, not shown: large carriers; small tags and cut ends)
peptide: RLDCDMVFSGPHGKICVNY
modifications: disulfide 4-16 (inferred); also: displayed on M13 phage fused to protein III via linkers
[3]
  binding result: binds
